From patent US20230279141A1 (MINERVA BIOTECHNOLOGIES, published 2023)
No end group written: not given here.

T1: recombinant human NME7-AB (human, UniProt Q9Y5B8 92-376)
T1 construct: Monomer with A and B domains; also called NME-AB
T1 sequence: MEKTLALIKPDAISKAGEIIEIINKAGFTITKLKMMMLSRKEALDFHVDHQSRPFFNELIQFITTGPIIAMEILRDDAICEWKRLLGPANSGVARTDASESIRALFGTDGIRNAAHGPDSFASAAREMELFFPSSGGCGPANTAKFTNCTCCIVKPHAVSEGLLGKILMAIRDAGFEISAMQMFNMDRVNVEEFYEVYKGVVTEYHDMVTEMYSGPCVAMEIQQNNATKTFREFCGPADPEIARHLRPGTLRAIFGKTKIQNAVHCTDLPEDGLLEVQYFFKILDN

B1: anti-NME7AB monoclonal antibody 5F3A5D4 (antibody, V domains shown)
VH: VQLQQSGPDLVKPGTSVKISCKTSGNTFTEYTMHWVKQSHGKSLEWIGGFNPNNGVTNYNQKFKGKATLTVDKSSSTAYMELRSLTSEDSAVYYCARRYYHSTYVFYFDSWGQGTTLTVSS
VL: DIQMTQTTSSLSASLGDRVTISCSASQGISNYLNWFQQKPDGTIKLLIYYTSSLHSGVPSRFSGSGSGTDYSLTISNVEPEDIATYYCQQYSKLPYTFGGGTKLEIKR
notes: Mouse monoclonal
B2: PSMGFR peptide (MUC1* extra cellular domain peptide) (peptide)
peptide: GTINVHDVETQFNQYKTEAASRYNLTISDVSVSDVPFPFSAQSGA
modifications: also: also used with C-terminal Cys coupled to BSA, or His-tagged or biotinylated
notes: also called MUC1* peptide; FLR
B3: anti-NME7AB monoclonal antibody 8F9A5A1 (antibody, V domains shown)
VH: IQLVQSGPELKKPGETVKISCKASGYTFTNYGMNWVKQAPGKGLKWMGWINTYTGEPTYVDDFKGRFAFSLETSATTAYLQINNLKNEDTSTYFCARLRGIRPGPLAYWGQGTLVTVSA
VL: EILLTQSPAIIAASPGEKVTITCSASSSVSYMNWYQQKPGSSPKIWIYGISNLASGVPARFSGSGSGTSFSFTINSMEAEDVATYYCQQRSSYPPTFGGGTKLEIKR
notes: Mouse monoclonal

Columns and labels:
[1] = target: T1, recombinant human NME7-AB; assay: ELISA, plate coated with recombinant NME7-AB (FIG. 24)
[2] = target: T1, recombinant human NME7-AB; assay: sandwich ELISA, PSMGFR-Cys-BSA on the plate, second tagged PSMGFR in solution (FIG. 1)
Procedure: The PSMGFR peptide bearing a C-terminal Cysteine (PSMGFR-Cys) was covalently coupled to BSA using Imject Maleimide activated BSA kit (Thermo Fisher). PSMGFR-Cys coupled BSA was diluted to 10 ug/mL in 0.1M carbonate/bicarbonate buffer pH 9.6 and 50 uL was added to each well of a 96 well plate. After overnight incubation at 4° C., the plate was washed twice with PBS-T and a 3% BSA solution was added to block remaining binding site on the well. After 1 h at RT the plate was washed twice with PBS-T and NME7, diluted in PBS-T+1% BSA, was added at different concentrations. After 1 h at RT the plate was washed 3× with PBS-T and anti-NM23-H7 (B-9, Santa Cruz Biotechnology), diluted in PBS-T+1% BSA, was added at 1/500 dilution. […] After 1 h at RT the plate was washed 3× with PBS-T and binding of NME7 was measured at 415 nm using ABTS solution (Pierce). […]
After 1 h at RT the plate was washed 3× with PBS-T and His-Tagged PSMGFR peptide (PSMGFR-His) or biotinylated PSMGFR peptide (PSMGFR-biotin), diluted in PBS-T+1% BSA, was added at different concentration. […] After 1 h at RT the plate was washed 3× with PBS-T and binding of PSMGFR peptide to NME7 already bound to another PSMGFR peptide (which could not signal by anti-His antibody or by streptavidin) coupled BSA was measured at 415 nm using a ABTS solution (Pierce).

Binder	binding result [1]	binding result [2]
B1	binds	
B2		binds
B3	binds	
